This is an account of results in patent US20160032013A1 (Genentech, published 2016).

Assay [1] deals with T1, Human RON on cells (3T3-hRON, A2780-hRON, BxPC3, human primary colon cells) (human, UniProt Q04912 25-1400).
T1 construct: That is its entry for human RON
Briefly: radioligand binding to 3T3-hRON cells for 4 h on ice.

Assay [2] addresses T1, Human RON on cells (3T3-hRON, …). Briefly: radioligand competition binding on 3T3-hRON cells: fixed 125I-MSP 689C as competitor, unlabeled MSP 689C titrated [Continued) D]. The method, then:
(§1) MSP proteins were iodinated using the Iodogen method (Thermo Scientific) and purified from free Na¹²⁵I by gel filtration using a NAP-5 column. Specific activities ranged from 12.26 to 18.65 μCi/μg. Competition reaction mixtures were made of a fixed concentration of iodinated MSP and unlabeled MSP serially diluted 1- to 2-fold ten times starting at 5 μM in a volume of 50 μL. 3T3-hRon cells were washed with binding buffer, consisting of DMEM with 1% bovine serum albumin, 325 nM human IgG, 50 mM HEPES (pH 7.2) and 0.1% sodium azide. 150,000 cells in 0.2 ml binding buffer were added to competition reaction mixtures. Competition reactions with cells were incubated for 2 h at room temperature and transferred to a Multiscreen filter plate (Millipore) and washed 4 times with binding buffer. Filters were counted on a Wallac Wizard 1470 gamma counter (PerkinElmer Life and Analytical Sciences). Binding affinities were determined using NewLigand software (Genentech, Inc) (Munson et al., 1980, Anal Biochem 107:220-39).

Assay [3] deals with T2, Human RON-hIgG1 Fc (RON Sema/PSI/IPT1 fused to human IgG1 Fc) (human).
T2 construct: also called RON-Fc; hRON-Fc
T2 sequence (chain, as listed by the source limits assumed): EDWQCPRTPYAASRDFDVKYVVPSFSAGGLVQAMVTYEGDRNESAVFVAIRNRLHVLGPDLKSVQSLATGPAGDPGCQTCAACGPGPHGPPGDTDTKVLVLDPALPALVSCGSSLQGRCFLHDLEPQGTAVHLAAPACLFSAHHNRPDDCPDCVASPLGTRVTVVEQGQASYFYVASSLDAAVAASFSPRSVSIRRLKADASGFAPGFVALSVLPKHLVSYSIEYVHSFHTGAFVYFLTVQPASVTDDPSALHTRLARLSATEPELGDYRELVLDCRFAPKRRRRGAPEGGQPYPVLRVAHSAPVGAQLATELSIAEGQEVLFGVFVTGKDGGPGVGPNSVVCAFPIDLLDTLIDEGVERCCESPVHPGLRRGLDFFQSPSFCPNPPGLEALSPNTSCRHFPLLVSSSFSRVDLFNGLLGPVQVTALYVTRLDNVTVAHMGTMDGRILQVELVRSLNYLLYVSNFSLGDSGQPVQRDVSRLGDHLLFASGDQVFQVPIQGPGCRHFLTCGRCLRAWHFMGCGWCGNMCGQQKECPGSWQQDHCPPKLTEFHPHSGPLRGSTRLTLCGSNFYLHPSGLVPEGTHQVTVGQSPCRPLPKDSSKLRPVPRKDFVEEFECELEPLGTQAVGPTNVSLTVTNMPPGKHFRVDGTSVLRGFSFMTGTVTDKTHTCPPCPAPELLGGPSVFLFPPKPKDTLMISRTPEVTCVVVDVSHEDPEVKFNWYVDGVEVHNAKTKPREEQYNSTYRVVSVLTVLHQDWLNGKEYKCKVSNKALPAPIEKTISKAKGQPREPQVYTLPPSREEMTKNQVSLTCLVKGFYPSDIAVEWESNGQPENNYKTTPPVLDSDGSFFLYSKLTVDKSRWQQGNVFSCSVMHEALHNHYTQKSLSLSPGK
Briefly: SPR capturing RON-Fc at 25 C. The method, then: To determine MSP protein binding kinetics to hRON-Fc or mRON-Fc fusion proteins, between 50 and 100 response units (RU) were captured on each of three immobilized anti-human Fc surfaces. Various concentrations (50-0.78 nM, 2-fold dilution series) of MSP, MSP β, MSP α or scMSP were injected in HBS-P buffer (10 mM HEPES, pH 7.5, 150 mM NaCl, 0.005% P20) at 25° C. with a flow rate of 30 μL/min and dissociation monitored for 4 min. Between measurements, the biosensor surfaces were regenerated with a 2 min pulse of 10 mM glycine-HCl pH 1.5.

The target of assay [4] is T3, Recombinant human RON Sema/PSI (residues E25-P568) with C-terminal His-tag (human, UniProt Q04912 25-568).
T3 construct: Made in Trichoplusia ni insect cells
Briefly: SPR using immobilized RON Sema/PSI at 25 C.

Assay [5] concerns the target T2, Human RON-hIgG1 Fc (RON Sema/PSI/IPT1 …). Description: plate binding assay, plate-bound RON-Fc, soluble His-tagged MSP, anti-His-HRP, 4-parameter fit. The text has this:
(§2) Means of three replicates per group are shown. […] C presents results of SPR analysis of MSP proteins binding to immobilized RON Sema/PSI, showing relative response in response units. Data are representative of three independent experiments. […] Competition binding to 3T3-hRON cells (large graphs) used to generate affinities and Scatchard plots (inset graphs) are shown. Mean+/−standard deviation (SD) of three independent experiments is shown. E is a homology model of the structure of RON Sema/PSI (PDB code 4FWW) shown at the bottom, which binds to MSP β (PDB code 2ASU) shown on top. RON and MSP β were globally aligned to the Met/HGF β complex (PDB code 1SHY). Predicted locations of the MSP β contact residues within 4 Å of RON are marked by asterisks. […]
(§3) MaxiSorp plates (Nalge Nunc International) were coated overnight at 4° C. with 2 μg/ml of rabbit anti-human IgG Fc specific antibody (Jackson ImmunoResearch Laboratories) in 50 mM sodium carbonate buffer, pH 9.6. […] Bound MSP was detected using anti-His-HRP (Qiagen Inc.) followed by addition of TMB/H₂O₂ substrate (Thermo Scientific). The reaction was stopped with 1M H₃PO₄ and the absorbance at 450 nm (A₄₅₀) was measured on a SpectraMax Plus³⁸⁴ plate reader (Molecular Devices, LLC). The half maximal effective concentration of MSP (EC₅₀) was determined by a 4-parameter fit using Kaleidagraph (Synergy Software).

Assay [6] deals with T1, Human RON on cells (3T3-hRON, …). Briefly: radioligand binding to 3T3-hRON cells for 2 h at room temperature. The procedure:
as §1

For assay [7], the target named is T2, Human RON-hIgG1 Fc (RON Sema/PSI/IPT1 …). Briefly: BLI using RON-Fc at 30 C. The procedure: Real-time kinetic measurements of MSP binding to RON were conducted using an Octet RED384 (ForteBio, Inc). Samples or buffer were dispensed into 96-well microtiter plates (Greiner Bio-One North America, Inc.) at a volume of 200 μl per well. Anti-human IgG Fc Biosensors were used for the experiments. Each experiment consisted of three steps: incubation with ForteBio Kinetic buffer diluted 1:10 in PBS assay buffer to establish an equilibrium for 120 s (baseline), incubation with 10 μg/ml RON-Fc in assay buffer to coat the biosensor with binding target for 900 s (load), incubation with MSP, MSP β or scMSP in assay buffer containing various concentrations (75-4.7 nM, 2-fold dilution series) for 400 s (association), and incubation with assay buffer to measure the off-rate of MSP for 400 s (dissociation). Operating temperature was maintained at 30° C. Data were generated automatically by the Octet Data Acquisition 7.0 software. Each data set was fitted globally to a simple one-to-one binding model using ForteBio Analysis Software 7.0 to determine the kinetic parameters kₐ and kd. The equilibrium dissociation constants (KD) were then calculated as a ratio (koff/kₒₙ) of these rate constants.

The target is the same in assay [8]. Briefly: plate binding assay, plate-bound RON-Fc, soluble His-tagged MSP β, anti-His-HRP, 4-parameter fit.
Description: as §2, §3

The target of assay [9] is T4, Mouse RON-hIgG1 Fc (murine RON Sema/PSI/IPT1, natural leader + R33-V684, fused to human IgG1 Fc) (mouse).
T4 construct: also called mRON-hFc; murine RON-Fc
Briefly: SPR (Biacore), anti-Fc chip, murine RON-Fc captured and MSP protein injected; table headed 'Similar High Affinities for Murine RON'. The method, then: Binding kinetics of RON to MSP β-Fc fusion proteins and MSP proteins to RON-Fc fusions were determined using a Biacore 3000 optical biosensor equipped with a research-grade CM5 sensor chip (GE Healthcare). Amine coupling reagents, N-ethyl-N′-dimethylamino-propylcarbodiimide (EDC), N-hydroxy-succinimide (NHS) and sodium ethanolamine HCl, pH 8.5, were obtained from GE Healthcare. Standard coupling protocols were used to tether a rabbit anti-human IgG1 or rabbit anti-murine IgG2a (Jackson ImmunoResearch Laboratories) onto the biosensor surface. A biosensor chip that was subjected to the amine coupling procedure with no protein coupled was used to correct for non-specific binding. […] Various concentrations (500-3.9 nM, 2-fold dilution series) of RON-His, were injected in HBS-P buffer (10 mM HEPES, pH 7.5, 150 mM NaCl, 0.005% P20) at 25° C. with a flow rate of 30 μL/min and dissociation monitored for 240 sec. Between measurements, the biosensor surfaces were regenerated with a 120 s pulse of 10 mM glycine-HCl pH 1.5 followed by a 120 s wash with running buffer.
To function as a RON agonist, MSPβ-IgG2a fusion proteins must bind the RON receptor. To assay binding, surface plasmon resonance was used to measure the affinity of full-length human MSP, human and mouse MSP β, and a number of human and mouse MSPβ-IgG2a fusions for immobilized RON receptor. […]

B1: Full length human MSP R689C (wild type + C672A + R689C + His tag), active two-chain form (ligand)
chain 1: QRSPLNDFQVLRGTELQHLLHAVVPGPWQEDVADAEECAGRCGPLMDCRAFHYNVSSHGCQLLPWTQHSPHTRLRRSGRCDLFQKKDYVRTCIMNNGVGYRGTMATTVGGLPCQAWSHKFPNDHKYTPTLRNGLEENFCRNPDGDPGGPWCYTTDPAVRFQSCGIKSCREAACVWCNGEEYRGAVDRTESGRECQRWDLQHPHQHPFEPGKFLDQGLDDNYCRNPDGSERPWCYTTDPQIEREFCDLPRCGSEAQPRQEATTVSCFRGKGEGYRGTANTTTAGVPCQRWDAQIPHQHRFTPEKYACKDLRENFCRNPDGSEAPWCFTLRPGMRAAFCYQIRRCTDDVRPQDCYHGAGEQYRGTVSKTRKGVQCQRWSAETPHKPQFTFTSEPHAQLEENFCRNPDGDSHGPWCYTMDPRTPFDYCALRRCADDQPPSILDPPDQVQFEKCGKRVDRLDQRRSKLR
chain 2: VVGGHPGNSPWTVSLRNRQGQHFCGGSLVKEQWILTARQCFSSCHMPLTGYEVWLGTLFQNPQHGEPSLQRVPVAKMVCGPSGSQLVLLKLERSVTLNQRVALICLPPEWYVVPPGTKCEIAGWGETKGTGNDTVLNVALLNVISNQECNIKHRGRVRESEMCTEGLLAPVGACEGDYGGPLACFTHNAWVLEGIIIPNRVCARSCWPAVFTRVSVFVDWIHKVMRLGHHHHHH
As to B1, the dissociation constant (Kd) in assay [1] stood at 25.7 nM; in assay [3] it was 9.6 nM; in assay [4], 9.6 nM; in assay [6] it was 13 nM; in [7], 9.4 nM. Besides, the “IC50 (read off the curve)” value in [2] is around 10 nM. For the same molecule, the values for the off-rate (koff) in assay [3] and in assay [4] were around 0.0016 s⁻¹ and 0.0012 s⁻¹, respectively. For the same molecule, the kon in assay [3] was around 170000 M⁻¹ s⁻¹; in assay [4], 116000 M⁻¹ s⁻¹. The EC50 in assay [5] was found to be 0.2 nM.

B2: Human MSP β 689R with wild-type C672 (HGF leader + V484-G711 + C588S + C672C + His tag) (ligand)
chain: VVGGHPGNSPWTVSLRNRQGQHFCGGSLVKEQWILTARQCFSSCHMPLTGYEVWLGTLFQNPQHGEPSLQRVPVAKMVCGPSGSQLVLLKLERSVTLNQRVALISLPPEWYVVPPGTKCEIAGWGETKGTGNDTVLNVALLNVISNQECNIKHRGRVRESEMCTEGLLAPVGACEGDYGGPLACFTHNCWVLEGIIIPNRVCARSRWPAVFTRVSVFVDWIHKVMRLGHHHHHH
Regarding B2, the EC50 in [8] was 0.05 nM.

B3: Human MSP β 689R (HGF leader + V484-G711 + C588S + C672A + His tag) (ligand)
chain: VVGGHPGNSPWTVSLRNRQGQHFCGGSLVKEQWILTARQCFSSCHMPLTGYEVWLGTLFQNPQHGEPSLQRVPVAKMVCGPSGSQLVLLKLERSVTLNQRVALISLPPEWYVVPPGTKCEIAGWGETKGTGNDTVLNVALLNVISNQECNIKHRGRVRESEMCTEGLLAPVGACEGDYGGPLACFTHNAWVLEGIIIPNRVCARSRWPAVFTRVSVFVDWIHKVMRLGHHHHHH
notes: This is an inference
In the case of B3, the equilibrium dissociation constant (Kd) is 9.6 nM in assay [3], 6.6 nM in assay [4], 5.1 nM in [9] and 7.5 nM in assay [7]. Also, the off-rate constant (koff) was determined as 0.0275 s⁻¹ in assay [3], 0.0159 s⁻¹ in assay [4] and 0.0025 s⁻¹ in assay [7]. The on-rate (kon) in assay [3] amounted to 3.53e+06 M⁻¹ s⁻¹; in assay [4], 2.45e+06 M⁻¹ s⁻¹; in [7] it was 388000 M⁻¹ s⁻¹.

B4: Human MSP β R689C with wild-type C672 (HGF leader + V484-G711 + C588S + C672C + R689C + His tag) (ligand)
chain: VVGGHPGNSPWTVSLRNRQGQHFCGGSLVKEQWILTARQCFSSCHMPLTGYEVWLGTLFQNPQHGEPSLQRVPVAKMVCGPSGSQLVLLKLERSVTLNQRVALISLPPEWYVVPPGTKCEIAGWGETKGTGNDTVLNVALLNVISNQECNIKHRGRVRESEMCTEGLLAPVGACEGDYGGPLACFTHNCWVLEGIIIPNRVCARSCWPAVFTRVSVFVDWIHKVMRLGHHHHHH
Regarding B4, in [3], the affinity, expressed as Kd, was 9.7 nM; the koff was 0.0079 s⁻¹; the kon stood at 870000 M⁻¹ s⁻¹. Moreover, the concentration for a half-maximal effect (EC50) in assay [8] is 0.1 nM.
